Data reported in US20210070829A1 (ZHEJIANG DOER BIOLOGICS, published 2021).
Like-named read-outs stand apart in the source and are kept apart here.

Legend:
Experiment in all cases: cell-based or functional assay
human GLP-1 receptor [1] = molecular target: T1, human GLP-1 receptor (human, UniProt P43220 24-463)
Glucagon receptor [2] = molecular target: Glucagon receptor
human GLP-1 receptor [3] = molecular target: T1, human GLP-1 receptor; remark: listed apart in the source
Glucagon receptor [4] = molecular target: Glucagon receptor; remark: listed apart in the source
[5] = molecular target: FGFR/β-Klotho receptor complex

B1: C225L10F10 (Fc fusion)
chain: HSQGTFTSDYSKYLDERAAQDFVQWLMNTGPSSGAPPPSGGGGAGGGGAGGGGAESKYGPPCPPCPAPEAAGGPSVFLFPPKPKDTLMISRTPEVTCVVVDVSQEDPEVQFNWYVDGVEVHNAKTKPREEQFASTYRVVSVLTVLHQDWLNGKEYKCKVSNKGLPSSIEKTISKAKGQPREPQVYTLPPSQEEMTKNQVSLTCLVKGFYPSDIAVEWESNGQPENNYKTTPPVLDSDGSFFLYSRLTVDKSRWQEGNVFSCSVMHEALHNHYTQKSLSLSLG
With B1 the “GLP-1R agonist activity EC50 (luciferase reporter)” value (shortened to “GLP-1R agonist activity EC50”) (human GLP-1 receptor [1]) was 1.47 nM and the “GCGR agonist activity EC50 (luciferase reporter)” value (“GCGR agonist activity EC50” below) (Glucagon receptor [2]) was 1.39 nM.

B2: C788L1F5 (Fc fusion)
chain: HSQGTFTSDYSKQMDSQRAQDFVQWLMNTKRNRNNIAGGGGSERKCCVECPPCPAPPVAGPSVFLFPPKPKDTLMISRTPEVTCVVVDVSHEDPEVQFNWYVDGVEVHNAKTKPREEQFNSTFRVVSVLTVVHQDWLNGKEYKCKVSNKGLPSSIEKTISKTKGQPREPQVYTLPPSREEMTKNQVSLTCLVKGFYPSDIAVEWESNGQPENNYKTTPPMLDSDGSFFLYSKLTVDKSRWQQGNVFSCSVMHEALHNHYTQKSLSLSPG
In the case of B2, the “GLP-1R agonist activity EC50” value (human GLP-1 receptor [1]) is reported as 18.5 nM and the “GCGR agonist activity EC50” value (Glucagon receptor [2]) is reported as 26.7 nM.

B3: C788 L1F5L5M5 (Fc fusion)
chain: HSQGTFTSDYSKQMDSQRAQDFVQWLMNTKRNRNNIAGGGGSERKCCVECPPCPAPPVAGPSVFLFPPKPKDTLMISRTPEVTCVVVDVSHEDPEVQFNWYVDGVEVHNAKTKPREEQFNSTFRVVSVLTVVHQDWLNGKEYKCKVSNKGLPSSIEKTISKTKGQPREPQVYTLPPSREEMTKNQVSLTCLVKGFYPSDIAVEWESNGQPENNYKTTPPMLDSDGSFFLYSKLTVDKSRWQQGNVFSCSVMHEALHNHYTQKSLSLSPGGGGGSGGGGSHPIPDSSPLLQFGGQVRQRYLYTDDAQQTEAHLEIREDGTVGGAEDQSPESLLQLKALKPGVIQILGVKTSRFLCQRPDGALYGSLHFDPEACSFRERLLEDGYNVYQSEAHGLPLHCPGNKSPHRDPAPRGPCRFLPLPGLPPALPEPPGILAPQPPDVGSSDPLSMVGGSQGRSPSYES
B3 was tested, and the “GLP-1R agonist activity EC50” value (human GLP-1 receptor [3]) was 10.6 nM, the “GCGR agonist activity EC50” value (Glucagon receptor [4]) was 7.64 nM and the “FGF21 activity EC50 (luciferase reporter)” value (“FGF21 activity EC50” below) [5] was 0.88 nM.

B4: C627 L12F10L9M6 (Fc fusion)
chain: HSQGTFTSDYSKQMDSQRAQDFVQWLMNGGPSSGAPPPSGGGGAGGGGAGGGGAAESKYGPPCPPCPAPEAAGGPSVFLFPPKPKDTLMISRTPEVTCVVVDVSQEDPEVQFNWYVDGVEVHNAKTKPREEQFASTYRVVSVLTVLHQDWLNGKEYKCKVSNKGLPSSIEKTISKAKGQPREPQVYTLPPSQEEMTKNQVSLTCLVKGFYPSDIAVEWESNGQPENNYKTTPPVLDSDGSFFLYSRLTVDKSRWQEGNVFSCSVMHEALHNHYTQKSLSLSLGGGGGSGGGGSGGGGSHPIPDSSPLLQFGGQVRQRYLYTDDAQQTEAHLEIREDGTVGGAADQSPESLLQLKALKPGVIQILGVKTSRFLCQRPDGALYGSLHFDPEACSFRERLLEDGYNVYQSEAHGLPLHCPGNKSPHRDPAPRGPCRFLPLPGLPPALPEPPGILAPQPPDVGSSDPLSMVEPSQGRSPSYAS
With B4 the “GLP-1R agonist activity EC50” value (human GLP-1 receptor [3]) was 1.48 nM, the “GCGR agonist activity EC50” value (Glucagon receptor [4]) was 1.69 nM and the “FGF21 activity EC50” value [5] was 1.11 nM.

B5: C711 L13F5L10M4 (Fc fusion)
chain: HSQGTFTSDYSKYLDSQAAQDFVQWLMNTKRNRNNIAGGGGSGGGGSGGGGSAERKCCVECPPCPAPPVAGPSVFLFPPKPKDTLMISRTPEVTCVVVDVSHEDPEVQFNWYVDGVEVHNAKTKPREEQFNSTFRVVSVLTVVHQDWLNGKEYKCKVSNKGLPSSIEKTISKTKGQPREPQVYTLPPSREEMTKNQVSLTCLVKGFYPSDIAVEWESNGQPENNYKTTPPMLDSDGSFFLYSKLTVDKSRWQQGNVFSCSVMHEALHNHYTQKSLSLSPGGGGGAGGGGAGGGGAHPIPDSSPLLQFGGQVRQRYLYTDDAQQTEAHLEIREDGTVGGAADQSPESLLQLKALKPGVIQILGVKTSRFLCQRPDGALYGSLHFDPEACSFRERLLEDGYNVYQSEAHGLPLHCPGNKSPHRDPAPRGPCRFLPLPGLPPALPEPPGILAPQPPDVGSSDPLAMVGGSQGRSPSYES
B5 was tested, and the “GLP-1R agonist activity EC50” value (human GLP-1 receptor [3]) was 10.8 nM, the “GCGR agonist activity EC50” value (Glucagon receptor [4]) was 9.55 nM and the “FGF21 activity EC50” value [5] was 0.75 nM.
